Experiments:
N=C(N)NCCC[C@H](N)C(=O)O = assay: purified protein; conditions: pH 5 (100 mM acetic acid-sodium acetate), 100 mM NaCl, 0.1 mM PLP, 10% glycerol, 20 °C, 10 nM Adc, decarboxylation to agmatine, parentheses = 2.5%-97.5% confidence interval
[1] = target: Providencia stuartii arginine decarboxylase Adc (Providencia stuartii); assay: cryo-EM structure; isolated Adc decamer, about 0.25 mg/mL, 25 mM MES, 150 mM NaCl, 1 mM DTT, 0.1 mM PLP, pH 6.5; D5 symmetry
[2] = target: Providencia stuartii arginine decarboxylase Adc (Providencia stuartii); assay: mass photometry; Refeyn OneMP; 30 nM Adc at pH 5.0 and 20 nM Adc at pH 6.5; only the decamer and species below it analysed

Row | stoichiometry N [1] | stoichiometry N [2] | Substance | Km (N=C(N)NCCC[C@H](N)C(=O)O) | kcat (N=C(N)NCCC[C@H](N)C(=O)O)
1 | – | – | Providencia stuartii arginine decarboxylase (Adc) (Providencia stuartii) | 0.331 (0.28, 0.38) mM | 102 (97, 108) s^-1
2 | 10 | 10 | Providencia stuartii arginine decarboxylase Adc (enzyme) | – | –

Source: paper PMC8983666, “Structural and biochemical characterisation of the Providencia stuartii arginine decarboxylase shows distinct polymerisation and regulation” (Communications Biology, 2022)
